Data on two substances can be found in paper PMC6527236.

Data set [1] has as its system φ29 SSB Y57A (Bacillus subtilis phage φ29). Kind of data set: EMSA. Conditions: 60 μM SSB, 10 mM Mg2+, more retarded band at the highest concentration only, EMSA: 12 mM Tris-HCl pH 7.5, 10 mM MgCl2, 1 mM DTT, 4% glycerol, 0.1 mg/ml BSA, 3 nM DNA, 15 min, 4 °C, unwinding: 50 mM Tris-HCl pH 7.5, 4% glycerol. For orientation: Mobility shift assays separate free from complexed probe on a gel.

Data set [2] concerns φ29 SSB Y50A (Bacillus subtilis phage φ29). Kind of data set: EMSA. Conditions: 60 μM SSB, 10 mM Mg2+, EMSA: 12 mM Tris-HCl pH 7.5, 10 mM MgCl2, 1 mM DTT, 4% glycerol, 0.1 mg/ml BSA, 3 nM DNA, 15 min, 4 °C, unwinding: 50 mM Tris-HCl pH 7.5, 4% glycerol.
Data set [3] has as its system φ29 SSB Y57A (Bacillus subtilis phage φ29). Kind of data set: unwinding (oligonucleotide displacement gel). Conditions: 80 μM SSB, no Mg2+ listed, helix destabilization, indirect binding read-out, EMSA: 12 mM Tris-HCl pH 7.5, 10 mM MgCl2, 1 mM DTT, 4% glycerol, 0.1 mg/ml BSA, 3 nM DNA, 15 min, 4 °C, unwinding: 50 mM Tris-HCl pH 7.5, 4% glycerol.
Data set [4] has as its system φ29 SSB Y50A (Bacillus subtilis phage φ29). The data set can be described thus: unwinding (oligonucleotide displacement gel). The following applies: 80 μM SSB, no Mg2+ listed, helix destabilization, indirect binding read-out, EMSA: 12 mM Tris-HCl pH 7.5, 10 mM MgCl2, 1 mM DTT, 4% glycerol, 0.1 mg/ml BSA, 3 nM DNA, 15 min, 4 °C, unwinding: 50 mM Tris-HCl pH 7.5, 4% glycerol.

Regarding 216mer yshC fragment, heat denatured, the binding signal (% of wild-type binding) in data set [1] was 17; in data set [2], 96.

Take M13mp18 ssDNA annealed to 17mer: the binding signal (% of wild-type 17mer displacement) in data set [3] was 17; in data set [4] it was 97.
